{"source": "patent US20050196753", "test_system": "recombinant Histone H3", "data": [{"substance": "human coactivator-associated arginine methyltransferase 1 (hCARM1), full-length, purified from baculovirus infected insect cells", "values": [{"measurement": "methylation of Histone H3 (in vitro methylation assay, SDS-PAGE and film)", "value": "hCARM1 methylates Histone H3 efficiently"}]}]}
